Source: the nanobody polyreactivity screen of Harvey et al. (2022)

Assay: yeast display, Sf9 membrane polyspecificity reagent, FACS + sequencing; frameworks hold sequencing errors
How it was run: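 Using colony PCR, genes from sorted yeast display clones were amplified, then sequenced on MiSeq at 2 × 250 and filtered by CDR length. The clones had been stained with 10% biotinylated, detergent-solubilized Sf9 membrane reagent for 1 hour at 4 °C and sorted by FACS into low and high (top ~1%) gates on anti-HA and streptavidin fluorescence. Polyreactivity labels come from the gate of origin.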

Row | Sequence | polyreactivity (PSR sort gate)
1 | QVQLVESGGGLVQAGGSLRLSCAPSGFTFVYYAMGWYRQAPGKERELVASISGGGRTYYADSVKGRFTISRDNAKNTVYLQMNSLKPEDTAVYYCAAEQYIRPYYRWVWVSYGYWGQGSQVTVSS | high polyreactivity
2 | QVQLVESGGGLVQAGGSLRLSCAPSGFTFYPYAMGWSRQAPGKERELVAAIRYSGGSTYYADSVKGRFTISRDNAKNTVYLQMNSLKPEATAVYYCAADGSNPWYRNSWSRYRFGYWGQGTQVTVSS | high polyreactivity
3 | QVQLVESGGGLVQAGGSLRLSCAPSGGIFGRNAMGWYRQAPGKESELVAGITNGGSTTYADSVKGRFTISRDNAKNTVYLQMNSLKPEDTAVYYCAVQLYRRWPYYQTHGYDYWGQGTQVTVTS | low polyreactivity
4 | QVQLVESGGGLVQAGGSLRLSCAPSGGTFLSNVMVWYRQAPGKERELVAAISSRGGSTYFADSVKGRFTISRDNAKNNVYFQMNSLKPVDTAVYYCNVRAAHYKDRQYDYWGQGTQGTVSS | high polyreactivity
5 | QVQLVESGGGLVQAGGSLRLSCAPSGIIFPEYDMGWYRQPPGKERELVAAITKSDGRTYYADSVKGRFTISRDNAKNSVYLQMNSLKPEDTAVYYCNADPSVVAYVGFVSWGQGTQVTLSS | low polyreactivity
6 | QVQLVESGGGLVQAGGSLRLSCAPSGITFQRYVMGWYRQAPGKERELVAAISFSGSSTYYADSVKGRFTISRDNAKNTVYLQMNSLKPEDTAVYYCAADGSVPKYVPYPRYYGYGYWGQGSQVTVSS | high polyreactivity
7 | QVQLVESGGGLVQAGGSLRLSCAPSGITFRYYAMGWYRQAPGKERELVAAITRSGSTTYADSVKGRFTISRDNAKNTVYLQMNSLKPEVTAVYYCAVDYYYLTGGVDYWGQGTQVTVSS | low polyreactivity
8 | QVQLVESGGGLVQAGGSLRLSCAPSGLTIGHYAMGWYRQAPGKERELVAAISSGGSTYYADSVKGRFTISRDNAKNTVYLQMNSLKPEDTAVYYCAAVTVGTAYYARTFYYWGQGTQVTVSS | high polyreactivity
9 | QVQLVESGGGLVQAGGSLRLSCAPSGNIFYINTMGWYRPAPGKERELVAAIDASDGSTYYADSVKGRFTISRDNAKNTVYLQMNSLKPEDTAVYYCATRRGYDSVYYLYTLWYYYWGQGTQVTVSS | low polyreactivity
10 | QVQLVESGGGLVQAGGSLRLSCAPSGNTFWDNAMGWYRQAPGKERELVAAIRWSTGSTHYADSVKGRFTISRDNAKNTVYLQMNSVKPEDTAVYYCDATDYYYYRDKYYGYDYWGQGNQVTVSS | low polyreactivity
11 | QVQLVESGGGLVQAGGSLRLSCAPSGRIFAGYTMGWYRQAPGKERELVAAISWSGGRTYYADSVKGRFTISRDNAKNTVYLQMNSLKPEDTAVYYCAKDGRYYSHYNYWGQGTQVTVSS | high polyreactivity
12 | QVQLVESGGGLVQAGGSLRLSCAPSGRIFDYYAMGWYRQAPGKESELVAAISGSGGSTYYADSVKGRFTISRDNAKNTVYLQMNSLKPEHTAVYYCAYGYLYCYDYWGQGTQVTVSS | low polyreactivity
13 | QVQLVESGGGLVQAGGSLRLSCAPSGRIFGTNDMGWYRQAPGKERELVADITSGGSTNYADSVKGSFTISRDNAMNTVYLPMNSLKPEDSAVYYCNARHHNKVARFDYWGQGTQVTVSS | low polyreactivity
14 | QVQLVESGGGLVQAGGSLRLSCAPSGRIFPYYAMGRYRQAPGKERELVATITASSGSTYYADSVKGRFTISRDNAKNTVYLQMNSLKPEDTAVYYCAAGFVYRPGSYIRFDYWGQGTQVTVSS | high polyreactivity
15 | QVQLVESGGGLVQAGGSLRLSCAPSGRIFQYNAMGWYRQAPGKERELGAAISNSTTRTYYADSVKGRFTISRDNAKNTVYLQMNSLKPEDTGVYYCAARGYFWSSYKYDYWVQGTQVTVSS | high polyreactivity
16 | QVQLVESGGGLVQAGGSLRLSCAPSGRIFWYNAMGWYRQAPGKERELVAGISSSGTRTYYADSVKGRFTISRDNAKNTVYLQMNSLKPEDTAVYYCAAGYDLSYYWYDYWGQGTQVTVSS | low polyreactivity

Row | Sequence | polyreactivity (PSR sort gate)
17 | QVQLVESGGGLVQAGGSLRLSCAPSGRIIGTNAMRWYIQAPRKERELVAAITWSGGSTYYADSVKGRFTISRDNAKNTVFLQMISLKPEDTAVYYCAKDYGYGPRFYYWGQGTQLTVSS | high polyreactivity
18 | QVQLVESGGGLVQAGGSLRLSCAPSGRIIRKNAMGWSRQAPGKERELVAAITSVGSTYYADSVKGRFTISRDNAMNTVYLQMNSLKPEDTAVYYCNALQWSYNRGGYWGQGTQVTVSS | high polyreactivity
19 | QVQLVESGGGLVQAGGSLRLSCAPSGRTFNDYAMGWYRQAPGKESELVAAIDSDGDTNYADSVKGRFTISRDNAKNTVYLQMNSLKPEDTAVYYCNAVRLVVQEWYYYFTFDYWGQGTQVTVSS | low polyreactivity
20 | QVQLVESGGGLVQAGGSLRLSCAPSGRTFNPYALGWYRPAPGKEREFVYADSVKGRFTISRDNAKNTVYLQMNSLKPEDTAVYYCAADVYPDTLHPYNYDYWGQGTQVTLSS | low polyreactivity
21 | QVQLVESGGGLVQAGGSLRLSCAPSGRTFQLYAMGWSRQAPGKERELVAGITITGGSTYYADSVKGRFTISRDNAKNTVYLLMNSLKPEDTAVYYCNKPRFSERYGMGYWGQGTQVTVSS | low polyreactivity
22 | QVQLVESGGGLVQAGGSLRLSCAPSGRTFRRYAMGWYRQAPGKEMEFVAAISRRTASTYYADSVKGRFTISRDNAKNTDYLQMNSLKPEDTAVYYCATKSGYSVGNYRYGYWVQGTQVTVSS | low polyreactivity
23 | QVQLVESGGGLVQAGGSLRLSCAPSGRTFYYYAMGWYRQAPGKERELVAAISRGSTYYADSVKGRFTISRDNAKNTVYLQMNSLKPEDTAVYYCAARYHNYWNRYIYDYWGQGTQVTVSS | high polyreactivity
24 | QVQLVESGGGLVQAGGSLRLSCAPSGSIFLHYAMGRYRQAPGKERDLVAAISRSGGRTYYADSVKGRFTISRDNAKNTVYLQMNSLKPEDTAVYYCAARVPRYRKDSVWAYYYWGQGTQVTVSS | high polyreactivity
25 | QVQLVESGGGLVQAGGSLRLSCAPSGSIFVHNAMGWYRQAPGKERELVAALDGGGGTYYADSVKGRFTISRDNAKNTVYLQMNSLKPEDTAVYYCAARYFHHYWGDLEVEFDYWGQGTQVTVSS | low polyreactivity
26 | QVQLVESGGGLVQAGGSLRLSCAPSGSILRYYAMGWYRQAPGKEREFVAAISWSGTSTYYADSVKGRFTISRDIAKNTVYLQMNSLKPEDTAVYYCAARTYYVPYYYWGQGTQVTVSS | high polyreactivity
27 | QVQLVESGGGLVQAGGSLRLSCAPSGSTFAYYAMGWYRQAPGKEREFVAAISTRGGSTYYADSVKGRFTISRDNAKNTVYFQMNSLKPEDTAVYYCAAGYFIYSWRIRFDYLGQGTQVTVSS | high polyreactivity
28 | QVQLVESGGGLVQAGGSLRLSCAPSGSTFDIYAMGWYRQAPGKERELVARISSGGGRTYYADSVKGRFTISRDNAKNTVYLQMNSLKPEDTAVYYCARDNEPDYYSYPYDYWGQGTQVTVSS | low polyreactivity
29 | QVQLVESGGGLVQAGGSLRLSCAPSGSTFNFNAMGWYRQAPGKERELVAAISKSGTRTYYADSVKGRFTISRDNAKNTVYLQMNSLKPEDTAVYYCAAPAISSYDHGYWGQGTQVTVSS | high polyreactivity
30 | QVQLVESGGGLVQAGGSLRLSCAPSGSTFRLYAMGWYRQAPGKERELVAVISGSGGNTYDADSVKGRFTISRDNAKNTVELQMNSLKPEDTAVDYCAAYSYRDRDDYWGQGTQGTVSS | high polyreactivity
31 | QVQLVESGGGLVQAGGSLRLSCAPSGYIFDIYAMVWYRQAPGKERELVAGITRNGGSTYYADSVKGRFTISRDNAKNTVYLQMNSLKPEDTAVYYCAAGWITRSLYHKYYSWGQGTQVTVSS | high polyreactivity
